Measurements as given in patent US20040120954A1, “Regulation of mt1-mmp activity” (priority 2000, published 2004).

What was measured:
[1] = biological target: FLAG epitope-tagged MT1-MMP (MT1-F) (human) (UniProt P50281); assay: binding of 25 nM 125I-labeled TIMP-2 to transfected CHO-K1 cells at 0 C, with and without BB-94
[2] = biological target: Membrane-type 1 matrix metalloproteinase (MT1-MMP) (human) (UniProt P50281)
[3] = biological target: MT1-F/NGFR (chimera of the ectodomain of MT1-F with the transmembrane/cytoplasmic domain of NGFR) (human) (UniProt P50281); assay: COS1 cells co-transfected with MT1-F/NGFR, Rac1DA and MT1PEX-F, PY20 Western blot (FIG. 24)
[4] = biological target: MT1-F/NGFR (chimera of the ectodomain of MT1-F with the transmembrane/cytoplasmic domain of NGFR) (human) (UniProt P50281); assay: competition with the dimer formation of MT1-F/NGFR in co-transfected COS1 cells, PY20 Western blot (FIG. 10)

Row | decrease in TIMP-2 binding on the cell surface on co-transfection of MT1PEX-F, against MT1-F alone [1] | Matrigel invasion by HT1080 cells (GFP-positive invading cells) [2] | decrease of the phosphotyrosine signal of MT1-F/NGFR [3] | inhibition of the phosphorylation of MT1-F/NGFR [4] | Substance
1 | 37% | – | – | – | Recombinant human TIMP-2 (tissue inhibitor of metalloproteinase-2) (from UniProt P16035)
2 | – | 70% | 43% | > 90% | Catalytic domain-deleted FLAG-tagged MT1-MMP (MT1PEX-F) (from UniProt P50281)
